Assay results reported in a protein production outcome set (Wang et al. 2014).

Test: label from the status in PepcDB records
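Further: failed if final PepcDB status was selected cloned or expressed and not failed if soluble or beyond.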

Row | Sequence | protein production
1 | MVTIKEYSVPQSLEEAYKILISKKNNVILGGCGFIKLSNKNIGTAIDLKDINLNYIKEDEKNILIGADTSLRSLEIDKTIKNYCSGILSSAVSNIVGVQFRQGARIGASVFSKYGFSDLIPALLVVGAKVRLYNKGILELSEFLDSELSRDILVEVILPKKDAIAVFDSIRKCTGDFSVLNSAMLKENDTYKIAIGARPQKARLALEASNILNKEKDIDKASIVASKELTYGSNMRASKEYRKDMASALVKRMYNAIEEGMYND | failed
2 | MAASDSRNNRADEPGFVVQPKGEHRVIIVWLHDKDERSSDSLQFVEQLNLKNVKWICPSLVFPDSFIKGVGGLGMGAAVALHFATSCALNHYTINPRVVVGISGWLSNSGSLKRSIESASHGAPARAASQSIFITHGICKSNRLLFQCDSVPHPCDCGEEAVLSLREAGFRDVKFTPFARFGPTAHENNRNVMVKSWLEEKLQLDVTIP | failed
3 | MLIKSIKLTNILSFGEAAETIELRPLNVVIGPNGSGKSNLIAAIELFRALPKDAPAFFRREGGIHDWLWKGGEIPPVATIESVFDEKGPLSGLRYALRFTVVGQHFEIIEERIEEEAAEGAQTPPPYHFKDGRGALRALLANEGEIKAWSFVIPSEIDPTQSILAQRKDPHQYPELTSLGAVLPTMRCYREWTMGPQSPPRQDQKTDLRNDYLDPYGAGNLALVLQRLGNKPALKKRFLEALRLLYEGIDDYGVTIEGGTSQIFFHEGGRFTIPASRLSDGTLRYLCLLAILLDPAPPPLLCIEEPELGLHPDILPTLADLLKEASERTQVIVTTHSDGLVDAMTDRPEAVLIAEKNENGTTLTRLDGETLKPWLAKYRLGELWTRGGIGGTRWLEHHHHHH | failed
4 | MTQPNIIMTRVDERLIHGQGQLWVKFLNCNTVIVANDAVSEDKIQQSLMKTVIPSSIAIRFFSIQKVIDIIHKASPAQSIFIVVKDLQDAKLLVEGGVPITEINIGNIHKTDDKVAITQFISLGETDKSAIRCLAHDHHVVFNTKTTPAGNSASDVDILDYI | not failed
5 | MATAEAQIGVNRNLQKQDLSNLDVSKLTPLSPEVISRQATINIGTIGHVAHGKSTVVKAISGVQTVRFKNELERNITIKLERLSEKKIKNLLTSKQQRQQYEIKQRSMLRHLAELRRHSRFRRLCTKPASSSMPASTSSVDRRTTRRSTSQTSLSPSNSSGYGSVFGCEEHDVDKIPSLNGFAKLKRRRSSCVGAPTPNSKRSKNNMGVIAKRPPKGEYVVERIECVEMDQYQPVFFVKWLGYHDSENTWESLANVADCAEMEKFVERHQQLYEIYIAKITTELEKQLEALPLMENITVAEVDAYEPLNLQIDLILLAQYRAAGSRSQREPQKIGERALKSMQIKRAQFVRRKQLADLALFEKRMNHVEKPSPPIRVENNIDLDTIDSNFMYIHDNIIGKDVPKPEAGIVGCKCTEDTEECTASTKCCARFAGELFAYERSTRRLRLRPGSAIYECNSRCSCDSSCSNRLVQHGRQVPLVLFKTANGSGWGVRAATALRKGEFVCEYIGEIITSDEANERGKAYDDNGRTYLFDLDYNTAQDSEYTIDAANYGNISHFINHSCDPNLAVFPCWIEHLNVALPHLVFFTLRPIKAGEELSFDYIRADNEDVPYENLSTAVRVECRCGADNCRKVLF | failed
6 | MTEFPKILMVLGAVIFGIGLFMQVIGRLPGDIFVKKGNVTFFFPVVTCIVISIILSVVFSFFGRMK | failed
7 | AWAGLQTKHLKVGDIEWVYSESGNSSKPTIILIHGLAGSRDNWNRVAYNLTPYYHVIIPDLPAHGDTKIPNDFDLSIPNLTEKLRRFAEAGHFEKNVHIAGHSMGGAIALLYTAQYPLETKSLLLVDSAGVFKTANTPYLKDPNLLNNLVVKKTGDFDKLFKLATASPPFIPVELKTEQEKLMIAQSKNTQKMVDQLVAMSKIYTPDTFAIATKSIDVPTYIIWGDQDKIINVEAAQELKSLLKNAETPYILKGVGHMPILEADQLVSQQYLIFLNK | failed
8 | FNGWSWSLGGNIGFNKSKIGDLGFAPTDFGTLKNVRGYQGTSIGDHFGIANLFIAGEAPGLFFGYKTQGIIQPEDIVDGKVAYTAADGSTKYYSSSVANDLGAGNIKAVDMNEDGVVDEKDKTILGNPNPDFTYGFQTRIAWKDLSVSASFNGVHGNQILNTNIRYYTPSRQAGNLTQEAFRNIWTEENHSNLYPSATANVKNVVYDRYIEDGSYLRCSDITLNYTLPKSWMKKIGFQNIGVFASVKNAFVITNYSGYDPEINSFAFDGLRPGIDMNAFPSQRSYVFGLNVAF | failed
9 | AIAAVKAQVLYDFTAEPGNNELTVHEGETLTITNQNVGGGWVEAQNSRGNVGLVPVDYVEVNSASAQAPATQYIDARNQGNNNSTANTQGVNGNEAWTATTWSNSYPADNWNYTEQEPAGNNGSVYSFDEEWDDDSDDGKSTGGYGGSQAEDGGTMQRSGAHSTMKLSLNKFPGFSKTPNPEVYLLTKHITKGNDRLSVYPGEVGPVWLYPQTQLDCVVADPKKGSKMYGLKSYIEYQITPNTTNRPVNHRYKHFDWLYERLVEKFACALPVPGLPDKQVTGRFEEEFIKMRMERLQGWMSRMCRHPVISNSEVFQLFLNYRDEKEWKLGKRKAEKDETVGVKIFSTIDPELPELDPAQVEQKYEVYNQFTRSMDNSVKELLAVGNLHWKRCTGPLQKEYRQIGKAFQNMSSVFNTSGYPRESTLTEALTATGKTYEEIAEVIAAQPRKDLHFLLETNNEYKGLLGCFPDTIGVHKAAIDKVKEADHLVMTNKISQQDKHTMEKNLSTMSYALQAEMNHFHSNRIYDYNRLMQFYLEEQVKFYETIAEKLKKALGQYTTI | failed
10 | MIQRTKAKVMGAPTPMAGLALGIASLGWSWENFAELHGYGQWISAGIASVLLVILATKFLLHNHLLREDLAHPVVGSVVPTFAMGTMVVSNSLGHFYPLAGDVLWLIAVVLHIVFLVSFVYHRAKDFELHHMVPSWFVPPVGIIVADVSFSGNPMLAPVAQGALTFGMVAYAIMLPMMIYRFMFTHEIPDAAKPTMAIMAAPASLSLAGYLTVTATPSPVIIAMLFGIAVLMTAIIYLAFFKLLRLPFSPGYAAFTFPMVIGATALFKMANWMELQGLAAHYVQQVRGLAGLELIVATFVVSYVALQYINNLLIQPRLMHAHHA | not failed
11 | MSTSEDTLRTSPDTFDADSVTSKGAPQEHARQVSGMFGRIARWYDLLNHVLSGGLDLYWRYRLVRQVVPGPTGRVLDLAAGTLDVAREIHRQHPGMRVPALDFCEAMLRAGQPKLVDGVQDVIWPAVADGRRLPLADASVDCVTIAFGIRNIVPRREAFEEMLRVLVPGGRACILEFGTGKTPVWKGLYNFYLNTLLPLVGRCVSGDAGAYRYLADTIMSFPDADALAAEMHDAGFTRVYHLPLTSGIVRLHVGEKPL | failed
12 | ALRERSEGLVLIGRRHLRSNNSWLHNVPALTGGTNRCTLHIHPEDAERLGLTDGAPVRVRGAGGAVTAPVEVTDGIRRGVVSLPHGWGHDRPGTRMSHAALDPGVNVNQLLDGSLLDPLSGNAVLNGVPVELTRT | failed
13 | MKRFLSIAMALCIGLTMSLDANAKRFGGGKSVGAAPTHQTRQAAPTAPGAPAAAATAGAAGAAGAAAKAGGASRWLGPLAGIAAGGLLASMFMGGGFQGMQIFDILIMAVIAFVIFRFIAARRRKQQEQYAPAGHAPMQREAFEPQQPAGGSIFGGSPAPAARPVINAPAWFNEERFIEAARSHFQSLQQHWDANEMDKIAEFVTPQMLQFLKQERADLGDGFQSTYIDNLQVQLEGVDDRADKTIATLTFSGVSKTSRFDQGEVFSESWNMERAQGDNQPWLVAGIRQNG | failed
14 | ESEPYVRLTTLRQLHQVMADMNTARSLADTLQTVADGVVNGLGYELACVNLVRPDGDLVVAAFAGNSAAEALITGRVGSRVSWDRRLDMGEAWGDLRFIPHTEGWVLDEDDVPQWYTDGPEPRFEDEWHPSDRLFAPMYTPGVQGASCGELIGVLSVDRPRNGRKPGAWGREALQMYAFQAAIAISNARLRANMQRALVRLEREQQALRASEESFRQAFEYAPS | failed
15 | LTEAVSLMEANIEEPLSTDDIAYYVGVSRRQLERLFKQYLGTVPSKYYLELRLNRARQLLQQTSKSIVQIGLACGFSSGPHFSSTYRNHFNITPREERAQ | not failed
16 | AIASNSLEEKKSYFSNRVNLLVENIGTSLRDLLRQGADSSDWNEYAGNLELHLSIENISRDLEELLTLSFEIEVLTLEGNLPQVMSETDGVEAAIQKRIAELNFALEQTGVFSGFSFLYDVNFQQIVEKATRALQKVSDYTPWVLDDGHNM | failed
